We go through 2 variants from PMC10022743.

The chains are these.
B1: HA–YKT6-WT (full-length, siRNA-resistant) [human] / SNAP29 [human (endogenous in HEK293T)] (parent)
chain 1: MKLYSLSVLYKGEAKVVLLKAAYDVSSFSFFQRSSVQEFMTFTSQLIVERSSKGTRASVKEQDYLCHVYVRNDSLAGVVIADNEYPSRVAFTLLEKVLDEFSKQVDRIDWPVGSPATIHYPALDGHLSRYQNPREADPMTKVQAELDETKIILHNTMESLLERGEKLDDLVSKSEVLGTQSKAFYKTARKQNSCCAIM
chain 2: MSAYPKSYNPFDDDGEDEGARPAPWRDARDLPDGPDAPADRQQYLRQEVLRRAEATAASTSRSLALMYESEKVGVASSEELARQRGVLERTEKMVDKMDQDLKISQKHINSIKSVFGGLVNYFKSKPVETPPEQNGTLTSQPNNRLKEAISTSKEQEAKYQASHPNLRKLDDTDPVPRGAGSAMSTDAYPKNPHLRAYHQKIDSNLDELSMGLGRLKDIALGMQTEIEEQDDILDRLTTKVDKLDVNIKSTERKVRQL

In this experiment the parent is B1. The experiment can be described thus: immunoprecipitation followed by mass spectrometry. The note with it: with SNAP29 [human (endogenous in HEK293T)], 2 h EBSS and 300 nM Torin 1, read off a plot.
Setting [1] is: YKT6 siRNA-treated HEK293T WT cells.

With chain 1 MKLYSLSVLYKGEAKVVLLKAAYDVSSFSFFQRSSVQEFMTFTSQLIVERSSKGTRASVKEQDYLCHVYVRNDSLAGVVIADNEYPSRVAFTLLEKVLDEFSKQVDRIDWPVGSPATIHYPALDGHLSRYQNPREADPMTKVQAELDETKIILHNAMESLLERGEKLDDLVSKSEVLGTQSKAFYKTARKQNSCCAIM [chain 1 T156A], the screen value reads like this: (HEK293T WT cells) 2 log2; under setting [1], 2 log2.

Turning to chain 1 MKLYSLSVLYKGEAKVVLLKAAYDVSSFSFFQRSSVQEFMTFTSQLIVERSSKGTRASVKEQDYLCHVYVRNDSLAGVVIADNEYPSRVAFTLLEKVLDEFSKQVDRIDWPVGSPATIHYPALDGHLSRYQNPREADPMTKVQAELDETKIILHNEMESLLERGEKLDDLVSKSEVLGTQSKAFYKTARKQNSCCAIM [chain 1 T156E], the screen value was -2.3 log2 (HEK293T WT cells) and -2.3 log2 under setting [1].
